This note sets out measurements from article doi:10.1101/2023.06.26.546597 (bioRxiv, 2023).

The data set deals with the molecule itself. As to the kind of experiment: crystal structure.

B1: YisK with C-terminal histidine tag (enzyme, B. subtilis 168, UniProt O06724 1-301, looked up)
chain: MKFATGELYNRMFVGLIIDDEKIMDLQKAEKKLFELETIPGSLIECIAEGDKFVAHARQLAEWAKKPNDELGSFMYSLSEVKLHAPIPKPSKNIICIGKNYRDHAIEMGSEADIPEHPMVFTKSPVTVTGHGDIVKSHEEVTSQLDYEGELAVVIGKSGTRISKEDAYDHVFGYTIVNDITARDLQKRHKQFFIGKSLDTTCPMGPVLVHKSSIQEPERLKVETRVNGELRQSGSASDMIFSIPELIETLSKGMTLEAGDIIATGTPSGVGKGFTPPKFLRSGDKIDITIDPIGTLSNQIG
Take B1: the binding result was “binds”.
